Measured values reported in US20190338009A1 (ZEALAND PHARMA A S, published 2019).
Square brackets hold non-standard residues; d marks the D form. Aib = CC(C)(N)C(=O)O

T1: human GLP-2 receptor (hGLP2-R) (human, UniProt O95838 1-553)
T1 sequence (looked up): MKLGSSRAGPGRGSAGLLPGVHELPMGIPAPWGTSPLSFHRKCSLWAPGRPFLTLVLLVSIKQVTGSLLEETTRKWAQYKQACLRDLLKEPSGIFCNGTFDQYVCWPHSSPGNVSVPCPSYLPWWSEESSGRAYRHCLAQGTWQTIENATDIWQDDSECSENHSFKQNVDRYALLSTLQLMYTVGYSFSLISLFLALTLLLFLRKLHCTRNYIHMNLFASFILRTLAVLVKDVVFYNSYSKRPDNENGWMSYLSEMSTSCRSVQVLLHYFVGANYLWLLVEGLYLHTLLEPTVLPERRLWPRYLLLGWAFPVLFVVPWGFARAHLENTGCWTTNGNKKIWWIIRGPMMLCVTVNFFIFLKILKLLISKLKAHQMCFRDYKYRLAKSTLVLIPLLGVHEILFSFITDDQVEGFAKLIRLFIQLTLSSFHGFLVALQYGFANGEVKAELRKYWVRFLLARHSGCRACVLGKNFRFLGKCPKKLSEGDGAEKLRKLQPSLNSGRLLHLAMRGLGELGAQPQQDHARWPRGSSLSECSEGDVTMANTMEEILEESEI


Columns and labels:
[1] = target: human glucagon-like peptide 1 receptor (GLP-1R) (human, UniProt P43220 24-463); experiment: cell-based or functional assay
[2] = target: T1, human GLP-2 receptor (hGLP2-R); experiment: cell-based or functional assay

| Binder | EC50 GLP-1 (nM); cAMP AlphaScreen, HEK293 cells expressing human GLP-1R [1] | EC50 GLP-2 (nM); cAMP AlphaScreen, HEK293 cells expressing human GLP-2R [2] |
| --- | --- | --- |
| H-H[Aib]EGTFTSELATILDEQAARDFIAWLIAYKITD-OH (SMILES CC[C@H](C)[C@H](NC(=O)[C@H](CC(C)C)NC(=O)[C@H](Cc1c[nH]c2ccccc12)NC(=O)[C@H](C)NC(=O)[C@@H](NC(=O)[C@H](Cc1ccccc1)NC(=O)[C@H](CC(=O)O)NC(=O)[C@H](CCCNC(=N)N)NC(=O)[C@H](C)NC(=O)[C@H](C)NC(=O)[C@H](CCC(N)=O)NC(=O)[C@H](CCC(=O)O)NC(=O)[C@H](CC(=O)O)NC(=O)[C@H](CC(C)C)NC(=O)[C@@H](NC(=O)[C@@H](NC(=O)[C@H](C)NC(=O)[C@H](CC(C)C)NC(=O)[C@H](CCC(=O)O)NC(=O)[C@H](CO)NC(=O)[C@@H](NC(=O)[C@H](Cc1ccccc1)NC(=O)[C@@H](NC(=O)CNC(=O)[C@H](CCC(=O)O)NC(=O)C(C)(C)NC(=O)[C@@H](N)Cc1c[nH]cn1)[C@@H](C)O)[C@@H](C)O)[C@@H](C)O)[C@@H](C)CC)[C@@H](C)CC)C(=O)N[C@@H](C)C(=O)N[C@@H](Cc1ccc(O)cc1)C(=O)N[C@@H](CCCCN)C(=O)N[C@H](C(=O)N[C@H](C(=O)N[C@@H](CC(=O)O)C(=O)O)[C@@H](C)O)[C@@H](C)CC) [Compound 20] | 0.012 nM | 0.26 nM |
| H-H[Aib]EGTFTSELATILDEQAARDFIAWLIRHKITD-OH (SMILES CC[C@H](C)[C@H](NC(=O)[C@H](Cc1ccccc1)NC(=O)[C@H](CC(=O)O)NC(=O)[C@H](CCCNC(=N)N)NC(=O)[C@H](C)NC(=O)[C@H](C)NC(=O)[C@H](CCC(N)=O)NC(=O)[C@H](CCC(=O)O)NC(=O)[C@H](CC(=O)O)NC(=O)[C@H](CC(C)C)NC(=O)[C@@H](NC(=O)[C@@H](NC(=O)[C@H](C)NC(=O)[C@H](CC(C)C)NC(=O)[C@H](CCC(=O)O)NC(=O)[C@H](CO)NC(=O)[C@@H](NC(=O)[C@H](Cc1ccccc1)NC(=O)[C@@H](NC(=O)CNC(=O)[C@H](CCC(=O)O)NC(=O)C(C)(C)NC(=O)[C@@H](N)Cc1c[nH]cn1)[C@@H](C)O)[C@@H](C)O)[C@@H](C)O)[C@@H](C)CC)C(=O)N[C@@H](C)C(=O)N[C@@H](Cc1c[nH]c2ccccc12)C(=O)N[C@@H](CC(C)C)C(=O)N[C@H](C(=O)N[C@@H](CCCNC(=N)N)C(=O)N[C@@H](Cc1c[nH]cn1)C(=O)N[C@@H](CCCCN)C(=O)N[C@H](C(=O)N[C@H](C(=O)N[C@@H](CC(=O)O)C(=O)O)[C@@H](C)O)[C@@H](C)CC)[C@@H](C)CC) [Compound 17] | 0.006 nM | 0.066 nM |
| H-H[Aib]EGSFTSELATILDEQAARDFIAWLHAHKITD-OH (SMILES CC[C@H](C)[C@H](NC(=O)[C@H](Cc1ccccc1)NC(=O)[C@H](CC(=O)O)NC(=O)[C@H](CCCNC(=N)N)NC(=O)[C@H](C)NC(=O)[C@H](C)NC(=O)[C@H](CCC(N)=O)NC(=O)[C@H](CCC(=O)O)NC(=O)[C@H](CC(=O)O)NC(=O)[C@H](CC(C)C)NC(=O)[C@@H](NC(=O)[C@@H](NC(=O)[C@H](C)NC(=O)[C@H](CC(C)C)NC(=O)[C@H](CCC(=O)O)NC(=O)[C@H](CO)NC(=O)[C@@H](NC(=O)[C@H](Cc1ccccc1)NC(=O)[C@H](CO)NC(=O)CNC(=O)[C@H](CCC(=O)O)NC(=O)C(C)(C)NC(=O)[C@@H](N)Cc1c[nH]cn1)[C@@H](C)O)[C@@H](C)O)[C@@H](C)CC)C(=O)N[C@@H](C)C(=O)N[C@@H](Cc1c[nH]c2ccccc12)C(=O)N[C@@H](CC(C)C)C(=O)N[C@@H](Cc1c[nH]cn1)C(=O)N[C@@H](C)C(=O)N[C@@H](Cc1c[nH]cn1)C(=O)N[C@@H](CCCCN)C(=O)N[C@H](C(=O)N[C@H](C(=O)N[C@@H](CC(=O)O)C(=O)O)[C@@H](C)O)[C@@H](C)CC) [Compound 22] | 0.28 nM | 0.042 nM |

Continued, values first:

| EC50 GLP-1 (nM); cAMP AlphaScreen, HEK293 cells expressing human GLP-1R [1] | EC50 GLP-2 (nM); cAMP AlphaScreen, HEK293 cells expressing human GLP-2R [2] | Binder |
| --- | --- | --- |
| 0.005 nM | 0.15 nM | H-H[Aib]EGTFTSELATILDEQAARDFIAWLIAQKITD-OH (SMILES CC[C@H](C)[C@H](NC(=O)[C@H](CC(C)C)NC(=O)[C@H](Cc1c[nH]c2ccccc12)NC(=O)[C@H](C)NC(=O)[C@@H](NC(=O)[C@H](Cc1ccccc1)NC(=O)[C@H](CC(=O)O)NC(=O)[C@H](CCCNC(=N)N)NC(=O)[C@H](C)NC(=O)[C@H](C)NC(=O)[C@H](CCC(N)=O)NC(=O)[C@H](CCC(=O)O)NC(=O)[C@H](CC(=O)O)NC(=O)[C@H](CC(C)C)NC(=O)[C@@H](NC(=O)[C@@H](NC(=O)[C@H](C)NC(=O)[C@H](CC(C)C)NC(=O)[C@H](CCC(=O)O)NC(=O)[C@H](CO)NC(=O)[C@@H](NC(=O)[C@H](Cc1ccccc1)NC(=O)[C@@H](NC(=O)CNC(=O)[C@H](CCC(=O)O)NC(=O)C(C)(C)NC(=O)[C@@H](N)Cc1c[nH]cn1)[C@@H](C)O)[C@@H](C)O)[C@@H](C)O)[C@@H](C)CC)[C@@H](C)CC)C(=O)N[C@@H](C)C(=O)N[C@@H](CCC(N)=O)C(=O)N[C@@H](CCCCN)C(=O)N[C@H](C(=O)N[C@H](C(=O)N[C@@H](CC(=O)O)C(=O)O)[C@@H](C)O)[C@@H](C)CC) [Compound 19] |
| 0.12 nM | 0.034 nM | H-H[Aib]EGSFTSELATILDEQAARDFIAWLYEHKITD-OH (SMILES CC[C@H](C)[C@H](NC(=O)[C@H](Cc1ccccc1)NC(=O)[C@H](CC(=O)O)NC(=O)[C@H](CCCNC(=N)N)NC(=O)[C@H](C)NC(=O)[C@H](C)NC(=O)[C@H](CCC(N)=O)NC(=O)[C@H](CCC(=O)O)NC(=O)[C@H](CC(=O)O)NC(=O)[C@H](CC(C)C)NC(=O)[C@@H](NC(=O)[C@@H](NC(=O)[C@H](C)NC(=O)[C@H](CC(C)C)NC(=O)[C@H](CCC(=O)O)NC(=O)[C@H](CO)NC(=O)[C@@H](NC(=O)[C@H](Cc1ccccc1)NC(=O)[C@H](CO)NC(=O)CNC(=O)[C@H](CCC(=O)O)NC(=O)C(C)(C)NC(=O)[C@@H](N)Cc1c[nH]cn1)[C@@H](C)O)[C@@H](C)O)[C@@H](C)CC)C(=O)N[C@@H](C)C(=O)N[C@@H](Cc1c[nH]c2ccccc12)C(=O)N[C@@H](CC(C)C)C(=O)N[C@@H](Cc1ccc(O)cc1)C(=O)N[C@@H](CCC(=O)O)C(=O)N[C@@H](Cc1c[nH]cn1)C(=O)N[C@@H](CCCCN)C(=O)N[C@H](C(=O)N[C@H](C(=O)N[C@@H](CC(=O)O)C(=O)O)[C@@H](C)O)[C@@H](C)CC) [Compound 23] |
| 0.006 nM | 0.054 nM | H-H[Aib]EGTFTSELATILDEQAARDFIAWLISHKITD-OH (SMILES CC[C@H](C)[C@H](NC(=O)[C@H](Cc1ccccc1)NC(=O)[C@H](CC(=O)O)NC(=O)[C@H](CCCNC(=N)N)NC(=O)[C@H](C)NC(=O)[C@H](C)NC(=O)[C@H](CCC(N)=O)NC(=O)[C@H](CCC(=O)O)NC(=O)[C@H](CC(=O)O)NC(=O)[C@H](CC(C)C)NC(=O)[C@@H](NC(=O)[C@@H](NC(=O)[C@H](C)NC(=O)[C@H](CC(C)C)NC(=O)[C@H](CCC(=O)O)NC(=O)[C@H](CO)NC(=O)[C@@H](NC(=O)[C@H](Cc1ccccc1)NC(=O)[C@@H](NC(=O)CNC(=O)[C@H](CCC(=O)O)NC(=O)C(C)(C)NC(=O)[C@@H](N)Cc1c[nH]cn1)[C@@H](C)O)[C@@H](C)O)[C@@H](C)O)[C@@H](C)CC)C(=O)N[C@@H](C)C(=O)N[C@@H](Cc1c[nH]c2ccccc12)C(=O)N[C@@H](CC(C)C)C(=O)N[C@H](C(=O)N[C@@H](CO)C(=O)N[C@@H](Cc1c[nH]cn1)C(=O)N[C@@H](CCCCN)C(=O)N[C@H](C(=O)N[C@H](C(=O)N[C@@H](CC(=O)O)C(=O)O)[C@@H](C)O)[C@@H](C)CC)[C@@H](C)CC) [Compound 18] |
| 0.049 nM | 0.11 nM | H-H[Aib]EGTFTSELATILDEQAARDFIAWLHQHKITD-OH (SMILES CC[C@H](C)[C@H](NC(=O)[C@H](Cc1ccccc1)NC(=O)[C@H](CC(=O)O)NC(=O)[C@H](CCCNC(=N)N)NC(=O)[C@H](C)NC(=O)[C@H](C)NC(=O)[C@H](CCC(N)=O)NC(=O)[C@H](CCC(=O)O)NC(=O)[C@H](CC(=O)O)NC(=O)[C@H](CC(C)C)NC(=O)[C@@H](NC(=O)[C@@H](NC(=O)[C@H](C)NC(=O)[C@H](CC(C)C)NC(=O)[C@H](CCC(=O)O)NC(=O)[C@H](CO)NC(=O)[C@@H](NC(=O)[C@H](Cc1ccccc1)NC(=O)[C@@H](NC(=O)CNC(=O)[C@H](CCC(=O)O)NC(=O)C(C)(C)NC(=O)[C@@H](N)Cc1c[nH]cn1)[C@@H](C)O)[C@@H](C)O)[C@@H](C)O)[C@@H](C)CC)C(=O)N[C@@H](C)C(=O)N[C@@H](Cc1c[nH]c2ccccc12)C(=O)N[C@@H](CC(C)C)C(=O)N[C@@H](Cc1c[nH]cn1)C(=O)N[C@@H](CCC(N)=O)C(=O)N[C@@H](Cc1c[nH]cn1)C(=O)N[C@@H](CCCCN)C(=O)N[C@H](C(=O)N[C@H](C(=O)N[C@@H](CC(=O)O)C(=O)O)[C@@H](C)O)[C@@H](C)CC) [Compound 21] |
